Measured values reported in the RNAGym collection of RNA variant scans (doi:10.7554/elife.80360).

B1: CPEB3 Ribozyme (parent)
chain: GGGGGCCACAGCAGAAGCGUUCACGUCGCGGCCCCUGUCAGAUUCUGGUGAAUCUGCGAAUUCUGCUGU

Variants of: B1
Experiment: self-cleavage, relative activity (ratio to wild type); higher = more cleavage; co-transcriptional

Row | Variant | self-cleavage
1 | U26A G30A | 0.36
2 | G25U C63A | 0.129
3 | G25U C63U | 0.173
4 | G25U U64A | 0.132
5 | G25U U64C | 0.103
6 | U26A C35U | 0.644
7 | U26A C35A | 0.228
8 | G25U A52G | 0.146
9 | G25U A52U | 0.199
10 | G25U A52C | 0.246
11 | G25U C32G | 0.158
12 | G25U G28C | 0.159
13 | G25U G28A | 0.141
14 | G25U G37C | 0.0933
15 | U26A A51U | 0.813
16 | U26A G48A | 0.846
17 | U26A G48C | 0.882
18 | G25U G47C | 0.11
19 | G25C U44A | 0.188
20 | G25U G50A | 0.144
21 | G25U G50C | 0.189
22 | G25U G50U | 0.151
23 | G25C G50U | 0.216
24 | G25U A51U | 0.152

Row | Variant | self-cleavage
25 | G25U A51G | 0.168
26 | G25U A51C | 0.212
27 | G25U C66U | 0.121
28 | G25C U62C | 0.158
29 | G25C U62G | 0.153
30 | G25C U62A | 0.132
31 | G25U U53A | 0.166
32 | G25U U53G | 0.226
33 | G25U U53C | 0.112
34 | U26A C57U | 0.39
35 | U26A C57G | 0.216
36 | U26A A42G | 0.72
37 | U26A A42C | 0.797
38 | G25U U62C | 0.193
39 | G25U U46A | 0.105
40 | G25U U46G | 0.205
41 | G25U U46C | 0.179
42 | G25U G31A | 0.163
43 | G25U G31C | 0.191
44 | G25U G31U | 0.182
45 | U26A G41C | 0.54
46 | U26A A40C | 0.32
47 | U26A A40G | 0.7
48 | G25C G56A | 0.143

Row | Variant | self-cleavage
49 | G25U A42U | 0.163
50 | G25U A42C | 0.17
51 | U26A G28A | 0.216
52 | U26A G28C | 0.114
53 | U26A G50C | 0.95
54 | U26A G50A | 0.871
55 | G25C U61G | 0.176
56 | G25C G68U | 0.21
57 | G25C G68A | 0.255
58 | G25C G68C | 0.18
59 | G25C U46G | 0.192
60 | G25C U46A | 0.18
61 | U26A C29G | 0.307
62 | G25U U26A | 0.273
63 | G25U U26C | 0.631
64 | U26A G31A | 0.511
65 | G25U U44A | 0.136
66 | G25U U44C | 0.105
67 | G25U U44G | 0.146
68 | U26A G47U | 0.932
69 | U26A G47A | 0.88
70 | G25U G58A | 0.214
71 | G25U G58C | 0.107
72 | G25U U36A | 0.125

Row | Variant | self-cleavage
73 | G25U U36C | 0.103
74 | G25U C39U | 0.151
75 | G25U C39G | 0.124
76 | U26A C54U | 0.909
77 | G25C G65C | 0.18
78 | G25C G65U | 0.151
79 | G25C U36G | 0.217
80 | G25U U38G | 0.205
81 | U26A C32A | 0.422
82 | U26A C32G | 0.231
83 | U26A C32U | 0.869
84 | G25C U43C | 0.164
85 | G25C U43G | 0.188
86 | U26A | 0.907
87 | U26A C34G | 0.501
88 | U26A C34U | 0.93
89 | U26A G56C | 0.357
90 | U26A G56U | 0.752
91 | G25U C29G | 0.161
92 | G25U C29A | 0.198
93 | G25U C57G | 0.151
94 | G25U C57U | 0.15
95 | G25U C57A | 0.137
96 | G25C U38G | 0.187

Row | Variant | self-cleavage
97 | G25C U38A | 0.176
98 | G25C U38C | 0.166
99 | G25C U69C | 0.333
100 | U26A A59U | 0.404
101 | U26A A59G | 0.923
102 | G25U A40G | 0.114
103 | G25U A40C | 0.183
104 | G25U A40U | 0.208
105 | G25C U67G | 0.24
106 | G25C U67A | 0.129
107 | G25U G48C | 0.215
108 | G25U G48A | 0.176
109 | G25U G48U | 0.155
110 | U26A C66A | 0.637
111 | U26A C66G | 0.635
112 | U26A C66U | 0.946
113 | G25U C27G | 0.16
114 | U26A G68A | 0.941
115 | U26A A52U | 0.816
116 | U26A A52G | 0.825
117 | U26A A52C | 0.9
118 | G25U C54A | 0.125
119 | G25U C54G | 0.115
120 | G25U C54U | 0.121

Row | Variant | self-cleavage
121 | G25U G30A | 0.16
122 | G25U G30C | 0.14
123 | G25U U55G | 0.146
124 | G25U U55A | 0.154
125 | G25U U61G | 0.149
126 | G25U G65C | 0.105
127 | G25C U49A | 0.14
128 | G25C U49G | 0.11
129 | G25U C34U | 0.151
130 | G25U C34G | 0.196
131 | G25U G68C | 0.225
132 | G25U G68U | 0.159
133 | G25C U64A | 0.132
134 | G25C G58C | 0.234
135 | U26A C33G | 0.395
136 | U26A C27G | 0.121
137 | U26A C27U | 0.429
138 | G25U U67G | 0.237
139 | G25U U67C | 0.212
140 | G25U U67A | 0.145
141 | G25U C33A | 0.175
142 | G25U C33G | 0.128
143 | G25U C33U | 0.137
144 | G25C U55C | 0.107

Row | Variant | self-cleavage
145 | G25C U55G | 0.174
146 | G25C U55A | 0.107
147 | G25U A59U | 0.199
148 | G25U A59C | 0.217
149 | G25U U49C | 0.157
150 | G25U U49G | 0.189
151 | G25U C35A | 0.155
152 | G25U C35G | 0.165
153 | G25U C45A | 0.181
154 | G25U C45U | 0.156
155 | G25U | 0.172
156 | G25C U53C | 0.0815
157 | G25C U53G | 0.106
158 | U26A C63A | 0.51
159 | G25U U69G | 0.183
160 | G25U U69C | 0.263
161 | U26A G65A | 0.736
162 | U26A A60U | 0.377
163 | U26A A60G | 0.478
164 | U26A G37C | 0.209
165 | U26A G37A | 0.287
166 | U26A G37U | 0.222
167 | G25U G41A | 0.112
